Assay results from paper PMC3290565.

biological target: T1, NalC-His (Pseudomonas aeruginosa K767) (UniProt Q9HXS0); assay: EMSA
T1 sequence: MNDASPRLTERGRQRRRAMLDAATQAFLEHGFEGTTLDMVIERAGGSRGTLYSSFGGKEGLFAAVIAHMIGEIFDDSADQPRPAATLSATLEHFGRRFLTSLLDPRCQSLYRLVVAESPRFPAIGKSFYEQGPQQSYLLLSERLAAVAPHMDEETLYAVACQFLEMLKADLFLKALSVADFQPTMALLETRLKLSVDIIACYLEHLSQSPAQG

| Sequence | binding |
| --- | --- |
| TTAGGGTTGACGCTGGTCATTTAAGAACTGTATCGTACAGTACTGTTTTGGCAAGCACTTCCGCTCATTCCTCCGCCTTGCCTCCCCGCAGGAGTCCCCCCA (double strand) [PA3720-distal fragment (endpoints I)] | no binding |
| CTAACGAGAAACGCTCTCAGCAAACCGCCTGGAGGCTTGAACGGACCGTCCCGACGGCCCACCATGCGCACCTTCCGACCGCCACCCCGCGAGGCCCGATACCGCTC (double strand) [PA3720-proximal fragment (endpoints II)] | binds |
| GAGCGGTATCGGGCCTCGCGGGGTGGCGGTCGGAAGGTGCGCATGGTGGGCCGTCGGGACGGTCCGTTCAAGCCTCCAGGCGGTTTGCTGAGAGCGTTTCTCGTTAGGGTTGACGCTGGTCATTTAAGAACTGTATCGTACAGTACTGTTTTGGCAAGCACTTCCGCTCATTCCTCCGCCTTGCCTCCCCGCAGGAGTCCCCCCA (double strand) [nalC-PA3720 intergenic region] | binds |
